# Experimental data taken from publication PMC6181919, “A cysteine-based molecular code informs collagen C-propeptide assembly” (Nature Communications, 2018).
# Positions count from the first letter of the chain named. Names may count otherwise.
# B1: wild-type, HA-tagged C-Proα1(I) (C-propeptide domain of human Colα1(I)) (domain or fragment)
# chain: DDANVVRDRDLEVDTTLKSLSQQIENIRSPEGSRKNPARTCRDLKMCHSDWKSGEYWIDPNQGCNLDAIKVFCNMETGETCVYPTQPSVAQKNWYISKNPKDKRHVWFGESMTDGFQFEYGGQGSDPADVAIQLTFLRLMSTEASQNITYHCKNSVAYMDQQTGNLKKALLLQGSNEIEIRAEGNSRFTYSVTVDGCTSHTGAWGKTVIEYKTTKTSRLPIIDVAPLDVGAPDQEFGFDVGPVCFL
# notes: C-propeptide (C-Pro) domain of human procollagen alpha1(I), from the endogenous C-proteinase cleavage site to the C-terminus; Secreted alone it is a disulfide-linked homotrimer; also called wild-type C-Proα1(I); Colα1(I) C-Pro; not shown: HA, N-terminal, kept
# B2: purified wild-type C-Proα1(I), His tag cleaved (domain or fragment, human)
# chain: B1 chain
# modifications: glycosylated (a single N-glycosylation site in the polypeptide; site not given)
# notes: C-propeptide (C-Pro) domain of human procollagen alpha1(I), from the endogenous C-proteinase cleavage site to the C-terminus; The HA/FLAG vectors were modified to carry a cleavable 6x-His tag with an HRV-3C site; Interstrand disulfide-linked homotrimer; source: HEK293 Freestyle, transfected, secreted, purified (Ni-NTA, HRV-3C cleavage, second Ni-NTA, Superdex 200)
# B3: Asp1277His C-Proα1(I) (domain or fragment, human)
# chain: B1 chain with D59H
# notes: C-propeptide (C-Pro) domain of human procollagen alpha1(I) with the osteogenesis imperfecta-causing substitution Asp1277His
# B4: purified C2S (Cys1265Ser) C-Proα1(I), His tag cleaved (domain or fragment, human)
# chain: B1 chain with C47S
# modifications: glycosylated (a single N-glycosylation site in the polypeptide; site not given)
# notes: C-propeptide (C-Pro) domain of human procollagen alpha1(I), from the endogenous C-proteinase cleavage site to the C-terminus; also called C2S C-Proα1(I); source: HEK293 Freestyle, transfected, secreted, purified (Ni-NTA, HRV-3C cleavage, second Ni-NTA, Superdex 200)
# B5: wild-type, HA-tagged C-Proα2(XI) (domain or fragment, human, UniProt P13942 1501-1736, looked up)
# chain: IQPLPIQMPKKTRRSVDGSRLMQEDEAIPTGGAPGSPGGLEEIFGSLDSLREEIEQMRRPTGTQDSPARTCQDLKLCHPELPDGEYWVDPNQGCARDAFRVFCNFTAGGETCVTPRDDVTQFSYVDSEGSPVGVVQLTFLRLLSVSAHQDVSYPCSGAARDGPLRLRGANEDELSPETSPYVKEFRDGCQTQQGRTVLEVRTPVLEQLPVLDASFSDLGAPPRRGGVLLGPVCFMG
# notes: C-propeptide (C-Pro) domain of human procollagen alpha2(XI); gene bought from Genewiz; source: HEK293, transfected, not secreted, in cell lysate; not shown: HA, N-terminal, kept
# Assays:
# [1] = target: the molecule itself; experiment: non-reducing SDS-PAGE immunoblot; conditioned media of transfected HEK293 cells, treated with 100 mM iodoacetamide, boiled in SDS, 12% gel, non-reducing; denaturing, shows disulfide-linked species only; two-colour detection of HA and FLAG
# [2] = target: the molecule itself; experiment: AUC; sedimentation equilibrium, 25 °C, 20 mM Bis-Tris propane pH 7, 150 mM NaCl, without Ca^2+; equilibrium constants are of monomer to dimer
# [3] = target: the molecule itself; experiment: SEC; size exclusion chromatography in the presence and absence of Ca^2+, compared to wild-type C-Proα1(I)
# [4] = target: the molecule itself; experiment: AUC; sedimentation equilibrium, 25 °C, 20 mM Bis-Tris propane pH 7, 150 mM NaCl, with 0.5 mM CaCl2; monomer to trimer
# [5] = target: the molecule itself; experiment: non-reducing SDS-PAGE immunoblot; cell lysate of transfected HEK293 cells (protein not secreted), non-reducing; denaturing, shows disulfide-linked species only
protein,measurement,setting,value
B1,stoichiometry N,[1],3
B2,stoichiometry N,[2],3
B3,stoichiometry N,[3],2
B4,stoichiometry N,[4],3
same,Ka,[2],76300 M⁻¹
same,stoichiometry N,[2],2
B5,stoichiometry N,[5],3
